This is an account of results in US20230049152A1 (Genentech, published 2023).

Assay [1] deals with T1, Y15A.
T1 construct: single alanine mutant of hCCR8; also called hCCR8 Y15A
T1 receptor chain: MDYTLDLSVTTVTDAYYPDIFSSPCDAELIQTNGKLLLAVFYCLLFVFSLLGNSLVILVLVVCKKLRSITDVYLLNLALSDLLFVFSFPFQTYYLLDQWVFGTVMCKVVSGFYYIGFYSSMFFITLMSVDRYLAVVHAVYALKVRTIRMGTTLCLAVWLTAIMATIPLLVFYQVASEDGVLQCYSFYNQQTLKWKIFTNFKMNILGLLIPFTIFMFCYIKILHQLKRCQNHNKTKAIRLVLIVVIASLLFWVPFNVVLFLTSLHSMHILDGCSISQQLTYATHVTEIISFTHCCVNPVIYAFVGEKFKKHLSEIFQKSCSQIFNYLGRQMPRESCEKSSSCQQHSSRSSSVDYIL
The experiment in a line: flow cytometry, HEK293 transfected with hCCR8 Y15A with C-terminal FLAG; sheet prints [huCCR8]=0.02 ug/ml.

The target in assay [2] is T2, L7A.
T2 construct: single alanine mutant of hCCR8; also called hCCR8 L7A
T2 receptor chain: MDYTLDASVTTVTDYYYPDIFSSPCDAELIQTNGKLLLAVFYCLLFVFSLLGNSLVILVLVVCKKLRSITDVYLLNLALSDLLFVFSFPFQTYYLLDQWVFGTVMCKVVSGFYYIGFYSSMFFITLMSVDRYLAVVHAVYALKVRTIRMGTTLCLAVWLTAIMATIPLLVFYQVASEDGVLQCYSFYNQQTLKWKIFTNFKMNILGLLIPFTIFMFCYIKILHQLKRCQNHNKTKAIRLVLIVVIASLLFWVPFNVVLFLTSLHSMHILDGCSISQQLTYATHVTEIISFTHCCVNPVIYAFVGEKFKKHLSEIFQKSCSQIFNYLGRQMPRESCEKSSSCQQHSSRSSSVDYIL
Briefly: flow cytometry, HEK293 transfected with hCCR8 L7A with C-terminal FLAG; sheet prints [huCCR8]=0.02 ug/ml. On the technique in general: A flow cytometer gives signals particle by particle.

In assay [3] the target is T3, T11A.
T3 construct: single alanine mutant of hCCR8; also called hCCR8 T11A
T3 receptor chain: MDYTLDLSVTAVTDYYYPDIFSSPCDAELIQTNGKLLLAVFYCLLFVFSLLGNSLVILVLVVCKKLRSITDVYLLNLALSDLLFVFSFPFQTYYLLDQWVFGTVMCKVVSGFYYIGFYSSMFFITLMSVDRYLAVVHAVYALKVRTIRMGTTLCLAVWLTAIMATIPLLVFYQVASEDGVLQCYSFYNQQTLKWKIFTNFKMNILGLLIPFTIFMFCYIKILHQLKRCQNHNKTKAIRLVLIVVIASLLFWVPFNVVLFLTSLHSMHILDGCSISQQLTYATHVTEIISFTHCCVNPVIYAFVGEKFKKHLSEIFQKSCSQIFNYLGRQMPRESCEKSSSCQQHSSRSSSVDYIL
The experiment in a line: flow cytometry, HEK293 transfected with hCCR8 T11A with C-terminal FLAG; sheet prints [huCCR8]=0.02 ug/ml. As for the experimental part: FIGS. 16A-16B depict the epitope maps for hu.Ab5.H13L1 (FIG. 16A) and hu.Ab4.H12L3 (FIG. 16B) mAbs.
To epitope map fucosylated hu.Ab5.H13L1, the binding to alanine point mutations in human CCR8 was analyzed by flow cytometry.

Assay [4] concerns the target T4, S8A.
T4 construct: single alanine mutant of hCCR8; also called hCCR8 S8A
T4 receptor chain: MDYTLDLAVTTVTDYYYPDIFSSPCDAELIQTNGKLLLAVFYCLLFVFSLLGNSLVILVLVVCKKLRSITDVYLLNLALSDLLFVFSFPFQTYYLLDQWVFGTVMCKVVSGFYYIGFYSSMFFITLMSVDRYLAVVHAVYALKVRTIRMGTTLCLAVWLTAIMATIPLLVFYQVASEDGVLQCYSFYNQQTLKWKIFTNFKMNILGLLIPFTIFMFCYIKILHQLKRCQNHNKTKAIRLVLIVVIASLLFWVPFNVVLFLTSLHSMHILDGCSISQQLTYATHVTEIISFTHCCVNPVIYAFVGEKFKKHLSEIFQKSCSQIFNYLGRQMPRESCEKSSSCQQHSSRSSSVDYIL
The experiment in a line: flow cytometry, HEK293 transfected with hCCR8 S8A with C-terminal FLAG; sheet prints [huCCR8]=0.02 ug/ml.

For assay [5], the target named is T5, human CCR8 (human, UniProt P51685 1-355).
T5 construct: the assay field says which; also called hCCR8; huCCR8
The experiment in a line: flow cytometry, CHO-huCCR8.Gna15 cells, relative to rb.Ab4. As to the method:
Evaluation of CCR8 binding of the humanized variants with a hIgG1 Fc involved screening by flow cytometry, and comparing the relative EC₅₀ and MFI on human CCR8 CHO cells to the parental rabbit antibodies. Specifically, stable CHO-huCCR8.Gna15 cells were stained with various concentrations (starting from 10 ug/ml or 66.66 nM, 1:4 serial dilution for total 8 concentration points) of Ab4 and Ab5 variants at 4° C. for 30 minutes, then washed twice with FACS buffer (PBS with 0.5% BSA and 0.2 mM EDTA) and followed by staining with AF647-anti-hIgG at 4° C. for 15 min. Cells were washed twice with FACS buffer, and re-suspended in FACS buffer with propidium iodide (0.5 ug/ml) and analyzed with iQue3 (Sartorius).

B1: hu.Ab5.H13L1 (antibody, human IgG1, kappa)
heavy: not shown
light: DIQVTQSPSSLSASVGDRVTITCQASENIANALAWYQQKPGKPPKFLIYGASNLASGVPSRFSGSGSGTDFTFTISSLQPEDIATYYCQQAYYGNSFVEGTFGGGTKVEIKRTVAAPSVFIFPPSDEQLKSGTASVVCLLNNFYPREAKVQWKVDNALQSGNSQESVTEQDSKDSTYSLSSTLTLSKADYEKHKVYACEVTHQGLSSPVTKSFNRGEC
notes: fucosylated human IgG1; also called Ab5 variant
For B1, the binding result in assay [1], in assay [2], in assay [3] and in assay [4] was “binds” throughout.

B2: hu.Ab4.H1L1 (antibody, human IgG1, kappa)
heavy: not shown
light: DYQMTQSPSSLSASVGDRVTITCQASQSISSYLSWYQQKPGKRPKLLIYKASTLASGVPSRFSGSGSGTDFTLTISSLQPEDFATYYCQQGYTSSNIDNIFGGGTKVEIKRTVAAPSVFIFPPSDEQLKSGTASVVCLLNNFYPREAKVQWKVDNALQSGNSQESVTEQDSKDSTYSLSSTLTLSKADYEKHKVYACEVTHQGLSSPVTKSFNRGEC
notes: also called hu.Ab4.H1Ll
Turning to B2, in assay [5], the “Relative EC50” value came out at 0.88 ratio and the “Relative MFI” value stood at 0.95 ratio.
